{"source": "paper PMC12478413", "about": "(bioRxiv, 2025)", "key": {"[1]": {"target": "recombinant GCase E326K variant (human GBA1 residues A40-Q536) (human)", "assay": "SEC"}, "[2]": {"target": "recombinant human LIMP2 lumenal domain (residues 36-430) (human) (UniProt Q14108)", "assay": "SEC-MALS"}, "[3]": {"target": "recombinant human LIMP2 lumenal domain (residues 36-430) (human) (UniProt Q14108)", "assay": "SPR"}, "[4]": {"target": "recombinant human LIMP2 lumenal domain (residues 36-430) (human) (UniProt Q14108)", "assay": "SPR", "remark": "listed apart in the source"}, "[5]": {"target": "recombinant GCase E326K variant (human GBA1 residues A40-Q536) (human)", "assay": "dynamic light scattering"}, "[6]": {"target": "recombinant GCase E326K+R329A double mutant (human)", "assay": "SEC"}, "[7]": {"target": "T1, recombinant WT GCase (glucocerebrosidase, human GBA1 residues A40-Q536) (human, UniProt P04062 40-536)", "T1 sequence (looked up)": "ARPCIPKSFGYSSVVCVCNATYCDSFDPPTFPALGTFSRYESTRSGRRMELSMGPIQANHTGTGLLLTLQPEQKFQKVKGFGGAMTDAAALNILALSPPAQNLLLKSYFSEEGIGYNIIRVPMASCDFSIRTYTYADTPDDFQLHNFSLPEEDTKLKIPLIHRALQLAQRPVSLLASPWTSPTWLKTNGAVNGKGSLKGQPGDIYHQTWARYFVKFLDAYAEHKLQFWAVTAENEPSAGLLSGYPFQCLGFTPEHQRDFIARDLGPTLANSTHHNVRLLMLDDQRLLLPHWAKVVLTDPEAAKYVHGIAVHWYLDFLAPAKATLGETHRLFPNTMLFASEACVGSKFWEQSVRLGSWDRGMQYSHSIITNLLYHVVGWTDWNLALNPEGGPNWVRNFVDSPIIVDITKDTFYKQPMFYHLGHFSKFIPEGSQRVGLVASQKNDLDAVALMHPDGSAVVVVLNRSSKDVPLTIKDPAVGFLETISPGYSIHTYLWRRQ", "assay": "SPR"}, "[8]": {"target": "T1, recombinant WT GCase …", "assay": "SPR", "remark": "listed apart in the source"}}, "note": "Where two headings read alike, the source gives them in different places."}
{"molecule": "recombinant GCase E326K variant (human GBA1 residues A40-Q536) (enzyme)", "values": [{"measurement": "stoichiometry N", "setting": "[1]", "result": 2}, {"measurement": "stoichiometry N (GCase E326K : LIMP2 (2:2))", "setting": "[2]", "result": 1}, {"measurement": "Kd", "setting": "[3]", "result": 2.44, "unit": "nM"}, {"measurement": "Kd", "setting": "[4]", "result": 3.89, "unit": "nM"}, {"measurement": "stoichiometry N", "setting": "[5]", "result": 2}]}
{"molecule": "recombinant GCase E326K+R329A double mutant (enzyme)", "values": [{"measurement": "stoichiometry N", "setting": "[6]", "result": 2}]}
{"molecule": "recombinant human LIMP2 lumenal domain (residues 36-430) (domain or fragment, UniProt Q14108 36-430, looked up, biotin on the Avitag (BirA, for SPR)) SIEKKIVLRNGTEAFDSWEKPPLPVYTQFYFFNVTNPEEILRGETPRVEEVGPYTYRELRNKANIQFGDNGTTISAVSNKAYVFERDQSVGDPKIDLIRTLNIPVLTVIEWSQVHFLREIIEAMLKAYQQKLFVTHTVDELLWGYKDEILSLIHVFRPDISPYFGLFYEKNGTNDGDYVFLTGEDSYLNFTKIVEWNGKTSLDWWITDKCNMINGTDGDSFHPLITKDEVLYVFPSDFCRSVYITFSDYESVQGLPAFRYKVPAEILANTSDNAGFCIPEGNCLGSGVLNVSICKNGAPIIMSFPHFYQADERFVSAIEGMHPNQEDHETFVDINPLTGIILKAAKRFQINIYVKKLDDFVETGDIRTMVFPVMYLNESVHIDKETASRLKSMIN", "values": [{"measurement": "Kd", "setting": "[7]", "result": 14.4, "unit": "nM"}, {"measurement": "Kd", "setting": "[8]", "result": 19.9, "unit": "nM"}]}
